We go through one substance from doi:10.1101/2021.10.13.464285.

The stoichiometry N is the number of molecules, sites or subunits per partner or assembly.

The target in this assay is Respiratory syncytial virus fusion (F) glycoprotein (respiratory syncytial virus, strain rA2-mK+ (parent strain A2)). In words: cryo-EM structure.

On to “Respiratory syncytial virus fusion (F) glycoprotein (natural protein)”, for which the stoichiometry N is 3.
